# Assay results as given in IntAct's records for PubMed 29749471.
# B1: Bcl-2-like protein 12 (Homo sapiens), Q9HB09 (parent)
# chain: MAGSEELGLREDTLRVLAAFLRRGEAAGSPVPTPPRSPAQEEPTDFLSRLRRCLPCSLGRGAAPSESPRPCSLPIRPCYGLEPGPATPDFYALVAQRLEQLVQEQLKSPPSPELQGPPSTEKEAILRRLVALLEEEAEVINQKLASDPALRSKLVRLSSDSFARLVELFCSRDDSSRPSRACPGPPPPSPEPLARLALAMELSRRVAGLGGTLAGLSVEHVHSFTPWIQAHGGWEGILAVSPVDLNLPLD
# Variants of: B1
# Details: with bax_human BAX
row,Variant,effect of a mutation on the interaction
1,E134A,with no effect
2,L129A,with no effect
3,L133A,with no effect
4,I125A,with no effect
5,L132A,with no effect
6,E136A,with no effect

# Variants of: B1
# Details: with BCL2L1, Q07817-1
# Sequence of BCL2L1, Q07817-1 (Q07817 whole entry): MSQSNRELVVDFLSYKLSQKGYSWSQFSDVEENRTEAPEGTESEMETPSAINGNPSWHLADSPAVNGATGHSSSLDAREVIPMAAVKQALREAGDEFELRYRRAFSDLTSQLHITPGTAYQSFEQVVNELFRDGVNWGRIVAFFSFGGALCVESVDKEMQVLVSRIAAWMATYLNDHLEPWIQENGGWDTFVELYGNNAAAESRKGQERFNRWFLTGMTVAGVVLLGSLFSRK
row,Variant,effect of a mutation on the interaction
1,L129A,disrupting interaction strength

# Variants of: B1
# Details: with bcl2_human BCL2, P10415
# Sequence of bcl2_human BCL2, P10415 (P10415 whole entry): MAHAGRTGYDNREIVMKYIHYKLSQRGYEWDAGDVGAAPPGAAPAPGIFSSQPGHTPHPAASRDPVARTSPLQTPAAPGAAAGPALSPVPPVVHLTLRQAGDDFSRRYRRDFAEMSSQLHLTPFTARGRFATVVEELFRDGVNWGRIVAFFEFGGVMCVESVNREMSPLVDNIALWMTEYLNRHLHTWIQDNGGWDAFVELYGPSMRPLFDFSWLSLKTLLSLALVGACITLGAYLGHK
row,Variant,effect of a mutation on the interaction
1,L129A,disrupting interaction strength

# Variants of: B1
# Details: with gsk3b_human GSK3B
row,Variant,effect of a mutation on the interaction
1,I125A,disrupting interaction strength
